Series [1] deals with the molecule itself. Kind of series: crystal structure.
Series [2] concerns the molecule itself. Nature of the series: crystal structure. The source holds these as a separate data set.

B1: nMHV 2-Helix (new construct of the MHV fusion core: shortened HR1, 22-residue linker, HR2) (domain or fragment)
chain: ENQKMIASAFNNALGAIQDGFDATNSALGKIQSVVNANAEALNNLLNQLSLVPRGSGGSGGSGGLEVLFQGPDLSLDFEKLNVTLLDLTYEMNRIQDAIKKLNESYINLKE
With B1, the binding result in series [1] is given as “binds”.
The same measure, in the same setting: the value for ENQKMIASAFNNALGAIQDGFDATNSALGKIQSVVNANAEALNNLLNQLS (domain or fragment) [shortened HR1 region of the MHV A59 spike protein, residues 968-1017] was “binds”.

B2: HR1 (heptad repeat 1) region of the MHV A59 spike protein, residues 968-1027 (domain or fragment)
chain: ENQKMIASAFNNALGAIQDGFDATNSALGKIQSVVNANAEALNNLLNQLSNRFGAISASL
As for B2, the “stoichiometry N” value in series [2] amounted to 3.

By stoichiometry N is commonly meant the number of molecules, sites or subunits per partner or assembly.

Values taken from publication PMC7982547 (The Journal of Biological Chemistry, 2004).
